Laboratory results taken from PMC6804253, “Predicting and Experimentally Validating Hot-Spot Residues at Protein–Protein Interfaces” (ACS Chemical Biology, 2019).
Numbering of substitutions follows the chain as printed.

B1: 2PCC DA34A (protein, UniProt P00431 68-361, looked up, variant D34A)
Cytochrome c peroxidase, …: TTPLVHVASVEKGRSYEDFQKVYNAIALKLREDAEYDNYIGYGPVLVRLAWHTSGTWDKHDNTGGSYGGTYRFKKEFNDPSNAGLQNGFKFLEPIHKEFPWISSGDLFSLGGVTAVQEMQGPKIPWRCGRVDTPEDTTPDNGRLPDADKDADYVRTFFQRLNMNDREVVALMGAHALGKTHLKNSGYEGPWGAANNVFTNEFYLNLLNEDWKLEKNDANNEQWDSKSGYMMLPTDYSLIQDPKYLSIVKEYANDQDKFFKDFSKAFEKLLENGITFPKDAPSPFIFKTLEEQGL
B2: 2PCC EA290A (protein, UniProt P00431 68-361, looked up, variant E290A)
Cytochrome c peroxidase, …: B1 Cytochrome c peroxidase, … with A34D, E290A
B3: 1A22 IB305A (protein, UniProt P10912 19-264, looked up, variant I105A)
extracellular domain: FSGSEATAAILSRAPWSLQSVNPGLKTNSSKEPKFTKCRSPERETFSCHWTDEVHHGTKNLGPIQLFYTRRNTQEWTQEWKECPDYVSAGENSCYFNSSFTSIWAPYCIKLTSNGGTVDEKCFSVDEIVQPDPPIALNWTLLNVSLTGIHADIQVRWEAPRNADIQKGWMVLEYELQYKEVNETKWKMMDPILTTSVPVYSLKVDKEYEVRVRSKQRNSGNYGEFSEVLYVTLPQMSQFTCEEDFY
modifications: extracellular domain
B4: 1A22 EB291A (protein, UniProt P10912 19-264, looked up, variant E91A)
extracellular domain: B3 extracellular domain with E91A, A105I
modifications: extracellular domain
B5: 1DAN LT59A (protein, UniProt P13726 33-295, looked up, variant L59A)
Tissue factor: SGTTNTVAAYNLTWKSTNFKTILEWEPKPVNQVYTVQISTKSGDWKSKCFYTTDTECDATDEIVKDVKQTYLARVFSYPAGNVESTGSAGEPLYENSPEFTPYLETNLGQPTIQSFEQVGTKVNVTVEDERTLVRRNNTFLSLRDVFGKDLIYTLYYWKSSSSGKKTAKTNTNEFLIDVDKGENYCFSVQAVIPSRTVNRKSTDSPVECMGQEKGEFREIFYIIGAVVFVVIILVIILAISLHKCRKAGVGQSWKENSPLNVS
B6: 1A4Y WA261A (protein, UniProt P13489 2-461, looked up, variant W261A)
Ribonuclease inhibitor: SLDIQSLDIQCEELSDARWAELLPLLQQCQVVRLDDCGLTEARCKDISSALRVNPALAELNLRSNELGDVGVHCVLQGLQTPSCKIQKLSLQNCCLTGAGCGVLSSTLRTLPTLQELHLSDNLLGDAGLQLLCEGLLDPQCRLEKLQLEYCSLSAASCEPLASVLRAKPDFKELTVSNNDINEAGVRVLCQGLKDSPCQLEALKLESCGVTSDNCRDLCGIVASKASLRELALGSNKLGDVGMAELCPGLLHPSSRLRTLAIWECGITAKGCGDLCRVLRAKESLKELSLAGNELGDEGARLLCETLLEPGCQLESLWVKSCSFTAACCSHFSSVLAQNRFLLELQISNNRLEDAGVRELCQGLGQPGSVLRVLWLADCDVSDSSCSSLAATLLANHSLRELDLSNNCLGDAGILQLVESVRQPGCLLEQLVLYDIYWSEEMEDRLQALEKDKPSLRVIS
B7: 1A4Y WA263A (protein, UniProt P13489 2-461, looked up, variant W263A)
Ribonuclease inhibitor: B6 Ribonuclease inhibitor with A261W, W263A
B8: 1A4Y YA437A (protein, UniProt P13489 2-461, looked up, variant Y437A)
Ribonuclease inhibitor: B6 Ribonuclease inhibitor with A261W, Y437A
B9: 1A4Y IA459A (protein, UniProt P13489 2-461, looked up, variant I459A)
Ribonuclease inhibitor: B6 Ribonuclease inhibitor with A261W, I459A
B10: 1A4Y YA434A (protein, UniProt P13489 2-461, looked up, variant Y434A)
Ribonuclease inhibitor: B6 Ribonuclease inhibitor with A261W, Y434A
B11: 1A4Y WA318A (protein, UniProt P13489 2-461, looked up, variant W318A)
Ribonuclease inhibitor: B6 Ribonuclease inhibitor with A261W, W318A
B12: 1A4Y WA375A (protein, UniProt P13489 2-461, looked up, variant W375A)
Ribonuclease inhibitor: B6 Ribonuclease inhibitor with A261W, W375A
B13: 1AHW YC157A (protein, UniProt P13726 33-251, looked up, variant Y157A)
extracellular domain: SGTTNTVAAYNLTWKSTNFKTILEWEPKPVNQVYTVQISTKSGDWKSKCFYTTDTECDLTDEIVKDVKQTYLARVFSYPAGNVESTGSAGEPLYENSPEFTPYLETNLGQPTIQSFEQVGTKVNVTVEDERTLVRRNNTFLSLRDVFGKDLIYTLYAWKSSSSGKKTAKTNTNEFLIDVDKGENYCFSVQAVIPSRTVNRKSTDSPVECMGQEKGEFRE
modifications: extracellular domain
B14: 1DAN VT64A (protein, UniProt P13726 33-251, looked up, variant V64A)
extracellular domain: B13 extracellular domain with V64A, A157Y
modifications: extracellular domain
B15: 1DAN FT76A (protein, UniProt P13726 33-251, looked up, variant F76A)
extracellular domain: B13 extracellular domain with F76A, A157Y
modifications: extracellular domain
B16: 1DAN FT50A (protein, UniProt P13726 33-251, looked up, variant F50A)
extracellular domain: B13 extracellular domain with F50A, A157Y
modifications: extracellular domain
B17: 1DAN VT33A (protein, UniProt P13726 33-251, looked up, variant V33A)
extracellular domain: B13 extracellular domain with V33A, A157Y
modifications: extracellular domain
B18: 1DAN VT36A (protein, UniProt P13726 33-251, looked up, variant V36A)
extracellular domain: B13 extracellular domain with V36A, A157Y
modifications: extracellular domain
B19: 1DAN YT51A (protein, UniProt P13726 33-251, looked up, variant Y51A)
extracellular domain: B13 extracellular domain with Y51A, A157Y
modifications: extracellular domain
B20: 1DAN IT22A (protein, UniProt P13726 33-251, looked up, variant I22A)
extracellular domain: B13 extracellular domain with I22A, A157Y
modifications: extracellular domain
B21: 1AHW VC198A (protein, UniProt P13726 33-251, looked up, variant V198A)
extracellular domain: B13 extracellular domain with A157Y, V198A
modifications: extracellular domain
B22: 1DAN LT72A (protein, UniProt P13726 33-251, looked up, variant L72A)
extracellular domain: B13 extracellular domain with L72A, A157Y
modifications: extracellular domain
B23: 1AHW LC176A (protein, UniProt P13726 33-251, looked up, variant L176A)
extracellular domain: B13 extracellular domain with A157Y, L176A
modifications: extracellular domain
B24: 1DAN WT45A (protein, UniProt P13726 33-251, looked up, variant W45A)
extracellular domain: B13 extracellular domain with W45A, A157Y
modifications: extracellular domain
B25: 1DAN YT78A (protein, UniProt P13726 33-251, looked up, variant Y78A)
extracellular domain: B13 extracellular domain with Y78A, A157Y
modifications: extracellular domain

Tested on: PPIs of the SKEMPI data set (by PDBID)
Assay: SKEMPI experimental ΔΔG, single mutations to alanine
Format: binding
Conditions: Positive / Neutral / Negative by ΔΔG threshold 4.184 kJ/mol; ref SKEMPI

Row | Molecule | sk_class (class of the SKEMPI experimental ΔΔG)
1 | B1 | Neutral (neutral (little effect) 4.184 kJ/mol < ΔΔG > −4.184 kJ/mol)
2 | B2 | Positive (positive (a hot residue) ΔΔG ≥ 4.184 kJ/mol)
3 | B3 | Neutral (neutral (little effect) 4.184 kJ/mol < ΔΔG > −4.184 kJ/mol)

Same assay, conditions: class by ΔΔG threshold 4.184 kJ/mol; ref SKEMPI

Row | Molecule | sk_class (class of the SKEMPI experimental ΔΔG)
4 | B4 | Neutral (neutral (little effect) 4.184 kJ/mol < ΔΔG > −4.184 kJ/mol)

Same assay, conditions: class of the SKEMPI experimental ΔΔG

Row | Molecule | sk_class
5 | B5 | Neutral (neutral (little effect) 4.184 kJ/mol < ΔΔG > −4.184 kJ/mol)
6 | B6 | Neutral (neutral (little effect) 4.184 kJ/mol < ΔΔG > −4.184 kJ/mol)
7 | B7 | Positive (positive (a hot residue) ΔΔG ≥ 4.184 kJ/mol)
8 | B8 | Neutral (neutral (little effect) 4.184 kJ/mol < ΔΔG > −4.184 kJ/mol)
9 | B9 | Neutral (neutral (little effect) 4.184 kJ/mol < ΔΔG > −4.184 kJ/mol)
10 | B10 | Positive (positive (a hot residue) ΔΔG ≥ 4.184 kJ/mol)
11 | B11 | Positive (positive (a hot residue) ΔΔG ≥ 4.184 kJ/mol)
12 | B12 | Positive (positive (a hot residue) ΔΔG ≥ 4.184 kJ/mol)
13 | B13 | Negative (negative (affinity enhancing) ΔΔG ≤ −4.184 kJ/mol)
14 | B14 | Neutral (neutral (little effect) 4.184 kJ/mol < ΔΔG > −4.184 kJ/mol)
15 | B15 | Positive (positive (a hot residue) ΔΔG ≥ 4.184 kJ/mol)
16 | B16 | Neutral (neutral (little effect) 4.184 kJ/mol < ΔΔG > −4.184 kJ/mol)
17 | B17 | Neutral (neutral (little effect) 4.184 kJ/mol < ΔΔG > −4.184 kJ/mol)
18 | B18 | Neutral (neutral (little effect) 4.184 kJ/mol < ΔΔG > −4.184 kJ/mol)
19 | B19 | Neutral (neutral (little effect) 4.184 kJ/mol < ΔΔG > −4.184 kJ/mol)
20 | B20 | Neutral (neutral (little effect) 4.184 kJ/mol < ΔΔG > −4.184 kJ/mol)
21 | B21 | Neutral (neutral (little effect) 4.184 kJ/mol < ΔΔG > −4.184 kJ/mol)
22 | B22 | Neutral (neutral (little effect) 4.184 kJ/mol < ΔΔG > −4.184 kJ/mol)
23 | B23 | Neutral (neutral (little effect) 4.184 kJ/mol < ΔΔG > −4.184 kJ/mol)
24 | B24 | Positive (positive (a hot residue) ΔΔG ≥ 4.184 kJ/mol)
25 | B25 | Neutral (neutral (little effect) 4.184 kJ/mol < ΔΔG > −4.184 kJ/mol)

Tested on: PPIs of the SKEMPI data set (by PDBID)
Assay: not given
Conditions: single mutation to alanine in the complex of the given PDBID; ref SKEMPI; cited from earlier work

Row | Molecule | sk_ddG_kJ (SKEMPI experimental ΔΔG of binding, mutation to alanine) [kJ]
26 | B1 | -3.81
27 | B2 | 25.90
28 | B3 | 0.54

Same assay, conditions: single mutation to alanine, sheet sortedByGroup, r_group FAMILYVW; ref SKEMPI; cited from earlier work

Row | Molecule | sk_ddG_kJ (SKEMPI experimental ΔΔG) [kJ]
29 | B5 | 0.00
30 | B6 | 0.38
31 | B7 | 4.85
32 | B8 | 3.43
33 | B9 | 2.80
34 | B10 | 13.64
35 | B11 | 6.19
36 | B12 | 4.31
37 | B13 | -7.91
38 | B14 | 0.00
39 | B15 | 4.81
40 | B16 | 1.84
41 | B17 | -0.79
42 | B18 | -0.54
43 | B19 | -0.54
44 | B20 | 2.72
45 | B21 | -1.30
46 | B22 | -0.25
47 | B23 | 4.14
48 | B24 | 6.53
49 | B25 | 2.72

Same assay, conditions: single mutation to alanine; PPI given by PDBID; sheet sortedByGroup, r_group DERKH; ref SKEMPI; cited from earlier work

Row | Molecule | sk_ddG_kJ (SKEMPI experimental ΔΔG, mutation to alanine) [kJ]
50 | B4 | 0.75
